Measurements from publication PMC9884275, “Metamorphism in TDP-43 prion-like domain determines chaperone recognition” (Nature Communications, 2023).

What was measured:
Conditions in all cases: both partners purified
DNAJA2 = biological target: T1, DNAJA2 (human, UniProt O60884 1-412); assay: NMR titration; 15N-HSQC at 15 °C, 800 MHz; 25–35 μM 15N/13C-labelled PLD in NMR buffer with 10 mM DTT (5 mM ZnCl2 for DNAJA2); unlabelled JDP co-chaperones added; signal intensity decay shown at 1:2 molar ratio
T1 construct: DNAJA2, human, cDNA cloned into pET28a (GenScript); 5 mM ZnCl2 and 10 mM DTT were added to its NMR samples; also called HSP40 (class A JDP)

DNAJB1 = biological target: T2, DNAJB1 (human, UniProt P25685 1-340); assay: NMR titration; 15N-HSQC at 15 °C, 800 MHz; 25–35 μM 15N/13C-labelled PLD with HSP72 and a JDP at 1:2:2 molar ratio (PLD:HSP70:co-chaperone), NMR buffer with 10 mM DTT
T2 construct: DNAJB1, human, cDNA cloned into pET28a (GenScript); also called HSP40 (class B JDP)

DNAJB4 = biological target: T3, DNAJB4 (human, UniProt Q9UDY4 1-337); assay: as above
T3 construct: DNAJB4, human, cDNA cloned into pET28a (GenScript); also called HSP40 (class B JDP)

DNAJC7 = biological target: T4, DNAJC7 (human, UniProt Q99615 1-494); assay: as above
T4 construct: DNAJC7, human, cDNA cloned into pET28a (GenScript); also called HSP40 (class C JDP)
T4 sequence (looked up): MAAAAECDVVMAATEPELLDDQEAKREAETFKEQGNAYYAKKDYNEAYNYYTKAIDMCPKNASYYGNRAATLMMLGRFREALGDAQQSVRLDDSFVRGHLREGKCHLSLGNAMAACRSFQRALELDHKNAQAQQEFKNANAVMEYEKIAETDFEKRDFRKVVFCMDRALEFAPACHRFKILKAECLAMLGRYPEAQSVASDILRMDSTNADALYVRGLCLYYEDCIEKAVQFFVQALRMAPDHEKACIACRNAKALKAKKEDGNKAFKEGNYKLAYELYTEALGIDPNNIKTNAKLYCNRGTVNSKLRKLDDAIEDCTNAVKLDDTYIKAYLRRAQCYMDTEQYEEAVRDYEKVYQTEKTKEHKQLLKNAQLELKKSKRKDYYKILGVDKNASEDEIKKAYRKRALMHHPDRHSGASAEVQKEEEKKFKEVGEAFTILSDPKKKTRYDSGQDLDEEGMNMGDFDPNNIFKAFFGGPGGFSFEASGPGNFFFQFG

T1 sequence (O60884 whole entry): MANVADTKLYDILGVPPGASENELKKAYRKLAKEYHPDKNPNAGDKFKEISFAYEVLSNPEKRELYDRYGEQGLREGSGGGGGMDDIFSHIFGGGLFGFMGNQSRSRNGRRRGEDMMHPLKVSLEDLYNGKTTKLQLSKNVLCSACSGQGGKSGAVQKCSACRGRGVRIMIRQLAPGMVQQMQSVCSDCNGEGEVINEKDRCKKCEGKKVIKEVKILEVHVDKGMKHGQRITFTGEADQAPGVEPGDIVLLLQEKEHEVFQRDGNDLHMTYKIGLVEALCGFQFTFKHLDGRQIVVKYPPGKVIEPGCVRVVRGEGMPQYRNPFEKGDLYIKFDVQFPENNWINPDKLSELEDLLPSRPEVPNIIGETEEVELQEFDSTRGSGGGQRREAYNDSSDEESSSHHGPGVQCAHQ
T2 sequence (P25685 whole entry): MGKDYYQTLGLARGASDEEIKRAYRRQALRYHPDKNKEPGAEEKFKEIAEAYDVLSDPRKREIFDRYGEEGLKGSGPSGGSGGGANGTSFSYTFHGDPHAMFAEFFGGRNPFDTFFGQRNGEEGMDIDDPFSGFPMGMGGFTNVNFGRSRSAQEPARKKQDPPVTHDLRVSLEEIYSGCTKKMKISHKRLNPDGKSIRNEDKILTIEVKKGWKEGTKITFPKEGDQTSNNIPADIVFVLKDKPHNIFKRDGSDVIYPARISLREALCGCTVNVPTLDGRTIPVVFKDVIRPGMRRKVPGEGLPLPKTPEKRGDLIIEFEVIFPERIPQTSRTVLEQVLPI
T3 sequence (Q9UDY4 whole entry): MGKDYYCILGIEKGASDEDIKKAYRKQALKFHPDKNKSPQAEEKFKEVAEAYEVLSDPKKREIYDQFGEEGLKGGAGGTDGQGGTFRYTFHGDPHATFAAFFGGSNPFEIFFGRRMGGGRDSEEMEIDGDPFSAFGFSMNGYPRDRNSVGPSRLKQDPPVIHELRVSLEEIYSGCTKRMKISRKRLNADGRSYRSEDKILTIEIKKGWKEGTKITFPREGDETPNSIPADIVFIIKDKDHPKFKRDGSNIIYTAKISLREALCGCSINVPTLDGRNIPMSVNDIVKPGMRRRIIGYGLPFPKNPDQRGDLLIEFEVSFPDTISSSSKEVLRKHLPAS

binding result (DNAJA2): binds
binding result (DNAJB1): binds
binding result (DNAJB4): binds
binding result (DNAJC7): binds
B1: TDP-43 prion-like domain (fragment 274-414 of human TDP-43) (domain or fragment, UniProt Q13148 274-414, looked up)
chain: GRFGGNPGGFGNQGGFGNSRGGGAGLGNNQGSNMGGGMNFGAFSINPAMMAAAQAALQSSWGMMGMLASQQNQSGPSGNNQNQGNMQREPNQAFGSGNNSYSGSNSGAAIGWGSASNAGSGSGFNGGFGSSMDSKSSGWGM
notes: TDP-43, human, UniProt Q13148, C-terminal prion-like domain, residues 274-414; 15N/13C-labelled for the NMR experiments; also called PLD; TDP-43 PLD; not shown: Thioredoxin (TXA), N-terminal, cleaved; His6, N-terminal, cleaved
